Test results from US20140163217A1, “PROCESS FOR THE ESTERIFICATION OF HYALURONIC ACID WITH HYDROPHOBIC ORGANIC COMPOUNDS” (UNIVERSITE DE GENEVE, priority 2010, published 2014).

How the values were obtained:
Type in all cases: physicochemical
[1] = Solubility of the product in water; conditions: product of small scale reaction (0.5 g), 2% diacerhein functionalization
Protocol: 0.044 g Diacerhein were suspended into 20 mL dry THF, followed by addition of 0.022 g CDI dissolved in 2 mL THF. The reaction mixture was stirred for 1 hour at room temperature until a clear solution was obtained. 0.5 g cryo-micronized HA powder were added and the suspension stirred at 70° C. for 24 hours. The reaction mixture was then filtered through a G4-fritte and washed with 150 mL dry THF. The non-soluble remaining HA product was slightly yellowish. By redissolving the product in water small amounts of remaining dispersed diacerhein could be removed by centrifugation to yield a visually clear and transparent aqueous solution.
The obtained product was analyzed by H^1-NMR-, HPLC-, UV- and LC-MS/MS-analyses, and the following results were obtained. The reaction resulted a 100% yield of HA-polymer, close to its original molecular weight with a 2% diacerhein-fimctionalization. No significant degradation of HA in the final product could be observed. […] For further qualitative characterization the HA-diacerhein product was enzymatically hydrolysed, which lead to HA-fragments (oligomers) with and without diacerhein, which could be analysed by HPLC analysis. Furthermore HA-fragments with and without diacerhein attached were identified by LC-MS/MS.

[2] = Solution appearance of a 1% (weight/weight) solution in MilliQ water; conditions: approx. 10 mg freeze-dried compound in 1 ml MilliQ water, after storage or centrifugation at 14'000 rpm for 10 min
Protocol: A 1% (weight/weight) solution was obtained by dissolving approximately 10 mg of freeze-dried compound into 1 ml of pure MilliQ water.

[3] = pH determination of the 1% solution; conditions: 1% (weight/weight) solution in MilliQ water; Metrohm 691 pH-Meter, Biotrode glass electrode
Protocol: pH of the above described 1% solution was determined to be 5.5 (Metrohm 691 ph-Meter operated with a Biotrode glass electrode; according to specifications received for the initial hyaluronic acid provided by TRB, pH of a 0.5% solution should be between 5.0 and 8.5).

| Substance | solubility in water [1] | solution appearance / precipitation [2] | pH of 1% solution [3] |
| --- | --- | --- | --- |
| HA-Diacerhein [Example 1] | soluble in water | – | – |
| HA-Diacerhein [Example 2] | – | no precipitation occurred | 5.5 |
